Assay results reported in the Immune Epitope Database (IEDB).

Experiments:
HLA-B*57:01 [1] = assay: IEDB peptide-MHC binding, purified MHC/direct/fluorescence; filed as Kd, often an IC50 or EC50 that approximates it; ≥ and ≤ were set here for values at or beyond the usual limits of such assays; conditions: source organism: Burkholderia mallei
HLA-A*31:01 = assay: as above; conditions: source organism: Burkholderia mallei
HLA-B*15:09 = assay: as above; conditions: source organism: Mycobacterium tuberculosis str. Haarlem
HLA-A*02:01 [2] = assay: as above; conditions: source organism: Burkholderia mallei
HLA-A*03:01 = assay: as above
HLA-B*46:01 [3] = assay: as above
HLA-B*48:01 = assay: as above; conditions: source organism: Burkholderia mallei
HLA-B*18:01 [4] = assay: as above; conditions: source organism: Burkholderia mallei
HLA-B*40:01 = assay: as above; conditions: source organism: Burkholderia mallei
HLA-B*15:01 [5] = assay: as above; conditions: source organism: Burkholderia mallei
HLA-B*27:05 = assay: as above
HLA-B*58:01 = assay: as above; conditions: source organism: Burkholderia mallei
HLA-B*39:01 [6] = assay: as above; conditions: source organism: Mycobacterium tuberculosis str. Haarlem
HLA-A*69:01 [7] = assay: as above; conditions: source organism: Burkholderia mallei
HLA-A*11:01 = assay: as above; conditions: source organism: Burkholderia mallei
HLA-B*15:17 [8] = assay: as above; conditions: source organism: Burkholderia mallei
HLA-A*26:01 [9] = assay: as above; conditions: source organism: Mycobacterium tuberculosis str. Haarlem
HLA-B*51:01 [10] = assay: as above; conditions: source organism: Burkholderia mallei
HLA-A*01:01 = assay: as above
HLA-A*02:11 = assay: as above
HLA-A*02:12 [11] = assay: as above
HLA-A*24:03 = assay: as above
HLA-A*23:01 = assay: as above
HLA-B*07:02 = assay: IEDB peptide-MHC binding, purified MHC/competitive/fluorescence; filed as Kd, often an IC50 or EC50 that approximates it; ≥ and ≤ were set here for values at or beyond the usual limits of such assays
HLA-B*51:01 [12] = assay: as above
HLA-B*35:01 = assay: as above
HLA-C*05:01 = assay: IEDB peptide-MHC binding, purified MHC/direct/fluorescence; filed as Kd, often an IC50 or EC50 that approximates it; ≥ and ≤ were set here for values at or beyond the usual limits of such assays
HLA-B*08:01 = assay: IEDB peptide-MHC binding, purified MHC/competitive/fluorescence; filed as Kd, often an IC50 or EC50 that approximates it; ≥ and ≤ were set here for values at or beyond the usual limits of such assays; conditions: source organism: Yersinia pestis Nepal516
HLA-A*02:19 = assay: IEDB peptide-MHC binding, purified MHC/direct/fluorescence; filed as Kd, often an IC50 or EC50 that approximates it; ≥ and ≤ were set here for values at or beyond the usual limits of such assays
HLA-A*68:02 = assay: as above
HLA-A*02:16 = assay: as above
HLA-A*29:02 = assay: as above
HLA-A*02:03 = assay: as above
HLA-B*57:01 [13] = assay: IEDB peptide-MHC binding, purified MHC/competitive/fluorescence; filed as Kd, often an IC50 or EC50 that approximates it; ≥ and ≤ were set here for values at or beyond the usual limits of such assays
HLA-A*02:01 [14] = assay: as above
HLA-B*46:01 [15] = assay: as above
HLA-B*18:01 [16] = assay: as above
HLA-B*15:01 [17] = assay: as above
HLA-B*39:01 [18] = assay: as above
HLA-A*69:01 [19] = assay: as above; conditions: source organism: Orthohantavirus puumalaense
HLA-B*27:03 = assay: as above
HLA-B*15:17 [20] = assay: as above
HLA-A*26:01 [21] = assay: as above
HLA-A*02:12 [22] = assay: as above; conditions: source organism: Giardia lamblia ATCC 50803
[23] = source organism: Burkholderia mallei
[24] = source organism: Mycobacterium tuberculosis str. Haarlem
[25] = source organism: Yersinia pestis Nepal516
[26] = source organism: Orthohantavirus puumalaense
[27] = source organism: Zaire ebolavirus
[28] = source organism: Influenza A virus (A/Leningrad/1954/1(H1N1))
[29] = source organism: Bacillus anthracis str. A0488
[30] = source organism: West Nile virus

APAKKAAAK
Kd (HLA-B*57:01 [1]): ≥ 20 µM | Kd (HLA-A*31:01): ≥ 20 µM | Kd (HLA-B*15:09): ≥ 20 µM | Kd (HLA-A*02:01 [2]): ≥ 20 µM | Kd (HLA-A*03:01; [23]): ≥ 20 µM | Kd (HLA-B*46:01 [3]; [23]): ≥ 20 µM | Kd (HLA-B*48:01): ≥ 20 µM | Kd (HLA-B*18:01 [4]): ≥ 20 µM | Kd (HLA-B*40:01): ≥ 20 µM | Kd (HLA-B*15:01 [5]): ≥ 20 µM | Kd (HLA-B*27:05; [23]): ≥ 20 µM | Kd (HLA-B*58:01): ≥ 20 µM | Kd (HLA-B*39:01 [6]): ≥ 20 µM | Kd (HLA-A*69:01 [7]): ≥ 20 µM | Kd (HLA-A*11:01): ≥ 20 µM | Kd (HLA-B*15:17 [8]): ≥ 20 µM | Kd (HLA-A*26:01 [9]): ≥ 20 µM | Kd (HLA-B*51:01 [10]): ≥ 20 µM | Kd (HLA-A*01:01; [23]): ≥ 20 µM | Kd (HLA-A*02:11; [24]): ≥ 20 µM | Kd (HLA-A*02:12 [11]; [24]): ≥ 20 µM

AYLFTPLFK
Kd (HLA-A*24:03; [24]): 0.185 µM | Kd (HLA-A*23:01; [24]): 0.356 µM

EPLAVIASL
Kd (HLA-B*07:02; [25]): ≥ 20 µM | Kd (HLA-B*51:01 [12]; [25]): ≥ 20 µM | Kd (HLA-B*35:01; [25]): 0.0017 µM

FPIKRISAV
Kd (HLA-C*05:01; [25]): ≥ 20 µM | Kd (HLA-B*08:01): 0.0512 µM | Kd (HLA-B*51:01 [12]; [25]): 0.268 µM | Kd (HLA-B*35:01; [25]): 0.0004 µM

LRYGNVLDV
Kd (HLA-A*03:01; source organism: Choclo virus): ≥ 20 µM | Kd (HLA-A*24:03; source organism: Choclo virus): ≥ 20 µM | Kd (HLA-A*23:01; source organism: Choclo virus): ≥ 20 µM | Kd (HLA-A*02:19; source organism: Choclo virus): ≥ 20 µM | Kd (HLA-A*68:02; source organism: Choclo virus): ≥ 20 µM | Kd (HLA-B*27:05; source organism: Isla Vista hantavirus): 0.951 µM | Kd (HLA-A*02:16; source organism: Choclo virus): ≥ 20 µM | Kd (HLA-A*29:02; source organism: Choclo virus): ≥ 20 µM | Kd (HLA-A*02:11; source organism: Choclo virus): ≥ 20 µM | Kd (HLA-A*02:12 [11]; source organism: Choclo virus): ≥ 20 µM | Kd (HLA-A*02:03; source organism: Choclo virus): ≥ 20 µM | Kd (HLA-B*57:01 [13]; [26]): ≥ 20 µM | Kd (HLA-A*02:01 [14]; [26]): ≥ 20 µM | Kd (HLA-B*46:01 [15]; [26]): ≥ 20 µM | Kd (HLA-B*18:01 [16]; [26]): ≥ 20 µM | Kd (HLA-B*15:01 [17]; [26]): ≥ 20 µM | Kd (HLA-B*39:01 [18]; [26]): ≥ 20 µM | Kd (HLA-A*69:01 [19]): ≥ 20 µM | Kd (HLA-B*27:03; [26]): ≥ 20 µM | Kd (HLA-B*15:17 [20]; [26]): ≥ 20 µM | Kd (HLA-A*26:01 [21]; [26]): ≥ 20 µM | Kd (HLA-B*51:01 [12]; [26]): ≥ 20 µM

LSDLCNFLV
Kd (HLA-C*05:01; [27]): 0.013 µM | Kd (HLA-A*03:01; [27]): ≥ 20 µM | Kd (HLA-A*24:03; [27]): ≥ 20 µM | Kd (HLA-A*23:01; [27]): ≥ 20 µM | Kd (HLA-A*02:19; [27]): ≥ 20 µM | Kd (HLA-A*68:02; [27]): ≥ 20 µM | Kd (HLA-A*01:01; source organism: Ebola virus - Gabon (1994-1997)): 0.0671 µM | Kd (HLA-A*02:16; [27]): ≥ 20 µM | Kd (HLA-A*29:02; [27]): ≥ 20 µM | Kd (HLA-A*02:11; [27]): ≥ 20 µM | Kd (HLA-A*02:12 [11]; [27]): ≥ 20 µM | Kd (HLA-A*02:03; [27]): ≥ 20 µM | Kd (HLA-B*57:01 [13]; [27]): ≥ 20 µM | Kd (HLA-A*02:01 [14]; [27]): ≥ 20 µM | Kd (HLA-B*46:01 [15]; [27]): ≥ 20 µM | Kd (HLA-B*18:01 [16]; [27]): ≥ 20 µM | Kd (HLA-B*15:01 [17]; [27]): ≥ 20 µM | Kd (HLA-B*39:01 [18]; [27]): ≥ 20 µM | Kd (HLA-B*27:03; [27]): ≥ 20 µM | Kd (HLA-B*15:17 [20]; [27]): ≥ 20 µM | Kd (HLA-A*26:01 [21]; [27]): ≥ 20 µM | Kd (HLA-B*51:01 [12]; [27]): ≥ 20 µM

LVSLGAISF
Kd (HLA-B*07:02; [28]): ≥ 20 µM | Kd (HLA-B*35:01; [28]): 0.29 µM

MTVFSYKAF
Kd (HLA-B*15:01 [17]; [29]): 0.19 µM | Kd (HLA-B*35:01; [29]): 0.154 µM

SVFQGALFA
Kd (HLA-A*02:01 [14]; source organism: Giardia lamblia ATCC 50803): 1.89 µM | Kd (HLA-A*02:12 [22]): 11 µM

TVSPSAPTY
Kd (HLA-B*46:01 [3]; [30]): ≥ 20 µM | Kd (HLA-B*35:01; [30]): ≤ 0.0001 µM
